Experimental data from patent US6989362.

Tested on: phospho-Thr75 DARPP-32

purified catalytic subunit of cAMP-dependent protein kinase (PKA)
phosphorylation of Thr34 DARPP-32 by PKA in vitro: The ability of PKA to phosphorylate Thr34 DARPP-32 in vitro was virtually abolished by prior phosphorylation at Thr75
